For the assay, the target named is T1, B3GNT2 (Homo sapiens, UniProt Q9NY97).
T1 construct: The respective ORFs of candidate genes [CD274 (NM_014143), MCL1 (NM_021960), JUNB (NM_002229), and B3GNT2 (NM_006577)] were synthesized; expressed in transfected cells; host or cells: A375 melanoma cells (lentiviral ORF overexpression)
T1 sequence (Q9NY97 1-397): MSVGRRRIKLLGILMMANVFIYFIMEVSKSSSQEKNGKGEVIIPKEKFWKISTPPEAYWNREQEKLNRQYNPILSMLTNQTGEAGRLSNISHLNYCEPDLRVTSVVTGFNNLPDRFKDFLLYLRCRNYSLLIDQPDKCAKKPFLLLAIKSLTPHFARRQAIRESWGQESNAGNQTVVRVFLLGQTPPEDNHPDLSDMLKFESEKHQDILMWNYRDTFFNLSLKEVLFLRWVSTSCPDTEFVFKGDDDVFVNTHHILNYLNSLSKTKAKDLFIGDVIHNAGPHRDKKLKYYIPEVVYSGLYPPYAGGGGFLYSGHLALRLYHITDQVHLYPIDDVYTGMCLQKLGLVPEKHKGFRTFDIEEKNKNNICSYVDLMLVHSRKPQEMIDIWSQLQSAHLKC
In words: Co-IP of FLAG-tagged B3GNT2 followed by mass spectrometry. In kind it is cell-based. Also noted: C-term IgG / C-term flag: unit not given here. The essentials:
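FLAG-tagged B3GNT2 immunoprecipitated from cell lysate (HEPES, 1% Triton X-100, 150 mM NaCl) with anti-FLAG versus […], overnight at 4° C, then captured on Protein A/G magnetic beads for 4 h. Two biological replicates per condition. Peptides fractionated and analyzed by nano-LC on an Orbitrap Elite in data-dependent mode.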

Where [1] appears, read: Co-IP followed by mass spectrometry of B3GNT2, C-term tag, FLAG pull-down.
[2] abbreviates: Co-IP followed by mass spectrometry of B3GNT2, C-term tag, IgG pull-down.
The mark [3] stands for this setting: Co-IP followed by mass spectrometry of B3GNT2, N-term tag, FLAG pull-down.
Where [4] appears, read: Co-IP followed by mass spectrometry of B3GNT2, N-term tag, IgG pull-down.

B1: CHCHD3 (protein)
chain: GGTTSTRRVTFEADENENITVVKGIRLSENVIDRMKESSPSGSKSQRYSGAYGASVSDEELKRRVAEELALEQAKKESEDQKRLKQAKELDRERAAANEQLTRAILRERICSEEERAKAKHLARQLEEKDRVLKKQDAFYKEQLARLEERSSEFYRVTTEQYQKAAEEVEAKFKRYESHPVCADLQAKILQCYRENTHQTLKCSALATQYMHCVNHAKQSMLEKGG
Consider B1, for which the C-term flag under setting [1] was 15. Besides, under setting [2], the “C-term IgG” value turned out to be 11. Under setting [3], the “N-term FLAG” value amounted to 16. Besides, the “N-term IgG” value under setting [4] came out at 10.

B2: MAP4 (protein, UniProt P27816 2-1152, looked up)
Microtubule-associated …: ADLSLADALTEPSPDIEGEIKRDFIATLEAEAFDDVVGETVGKTDYIPLLDVDEKTGNSESKKKPCSETSQIEDTPSSKPTLLANGGHGVEGSDTTGSPTEFLEEKMAYQEYPNSQNWPEDTNFCFQPEQVVDPIQTDPFKMYHDDDLADLVFPSSATADTSIFAGQNDPLKDSYGMSPCNTAVVPQGWSVEALNSPHSESFVSPEAVAEPPQPTAVPLELAKEIEMASEERPPAQALEIMMGLKTTDMAPSKETEMALAKDMALATKTEVALAKDMESPTKLDVTLAKDMQPSMESDMALVKDMELPTEKEVALVKDVRWPTETDVSSAKNVVLPTETEVAPAKDVTLLKETERASPIKMDLAPSKDMGPPKENKKETERASPIKMDLAPSKDMGPPKENKIVPAKDLVLLSEIEVAQANDIISSTEISSAEKVALSSETEVALARDMTLPPETNVILTKDKALPLEAEVAPVKDMAQLPETEIAPAKDVAPSTVKEVGLLKDMSPLSETEMALGKDVTPPPETEVVLIKNVCLPPEMEVALTEDQVPALKTEAPLAKDGVLTLANNVTPAKDVPPLSETEATPVPIKDMEIAQTQKGISEDSHLESLQDVGQSAAPTFMISPETVTGTGKKCSLPAEEDSVLEKLGERKPCNSQPSELSSETSGIARPEEGRPVVSGTGNDITTPPNKELPPSPEKKTKPLATTQPAKTSTSKAKTQPTSLPKQPAPTTIGGLNKKPMSLASGLVPAAPPKRPAVASARPSILPSKDVKPKPIADAKAPEKRASPSKPASAPASRSGSKSTQTVAKTTTAAAVASTGPSSRSPSTLLPKKPTAIKTEGKPAEVKKMTAKSVPADLSRPKSTSTSSMKKTTTLSGTAPAAGVVPSRVKATPMPSRPSTTPFIDKKPTSAKPSSTTPRLSRLATNTSAPDLKNVRSKVGSTENIKHQPGGGRAKVEKKTEAAATTRKPESNAVTKTAGPIASAQKQPAGKVQIVSKKVSYSHIQSKCGSKDNIKHVPGGGNVQIQNKKVDISKVSSKCGSKANIKHKPGGGDVKIESQKLNFKEKAQAKVGSLDNVGHLPAGGAVKTEGGGSEAPLCPGPPAGEEPAISEAAPEAGAPTSASGLNGHPTLSGGGDQREAQTLDSQIQETSI
Under setting [1], B2 yielded a C-term flag of 5. For the same molecule, the “C-term IgG” value under setting [2] came to 0. The “N-term FLAG” value under setting [3] was 0. Besides, the “N-term IgG” value under setting [4] is 0.

B3: GEMIN4 (protein)
chain: MDLGPLNICEEMTILHGGFLLAEQLFHPKALAELTKSDWERVGRPIVEALREISSAAAHSQPFAWKKKALIIIWAKVLQPHPVTPSDTETRWQEDLFFSVGNMIPTINHTILFELLKSLEASGLFIQLLMALPTTICHAELERFLEHVTVDTSAEDVAFFLDVWWEVMKHKGHPQDPLLSQFSAMAHKYLPALDEFPHPPKRLRSDPDACPTMPLLAMLLRGLTQIQSRILGPGRKCCALANLADMLTVFALTEDDPQEVSATVYLDKLATVISVWNSDTQNPYHQQALAEKVKEAERDVSLTSLAKLPSETIFVGCEFLHHLLREWGEELQAVLRSSQGTSYDSYRLCDSLTSFSQNATLYLNRTSLSKEDRQVVSELAECVRDFLRKTSTVLKNRALEDITASIAMAVIQQKMDRHMEVCYIFASEKKWAFSDEWVACLGSNRALFRQPDLVLRLLETVIDVSTADRAIPESQIRQVIHLILECYADLSLPGKNKVLAGILRSWGRKGLSEKLLAYVEGFQEDLNTTFNQLTQSASEQGLAKAVASVARLVIVHPEVTVKKMCSLAVVNLGTHKFLAQILTAFPALRFVEEQGPNSSATFMVSCLKETVWMKFSTPKEEKQFLELLNCLMSPVKPQGIPVAALLEPDEVLKEFVLPFLRLDVEEVDLSLRIFIQTLEANACREEYWLQTCSPFPLLFSLCQLLDRFSKYWQLPKEKRCLSLDRKDLAIHILELLCEIVSANAETFSPDVWIKSLSWLHRKLEQLDWTVGLRLKSFFEGHFKCEVPATLFEICKLSEDEWTSQAHPGYGAGTGLLAWMECCCVSSGISERMLSLLVVDVGNPEEVRLFSKGFLVALVQVMPWCSPQEWQRLHQLTRRLLEKQLLHVPYSLEYIQFVPLLNLKPFAQELQLSVLFLRTFQFLCSHSCRDWLPLEGWNHVVKLLCGSLTRLLDSVRAIQAAGPWVQGPEQDLTQEALFVYTQVFCHALHIMAMLHPEVCEPLYVLALETLTCYETLSKTNPSVSSLLQRAHEQRFLKSIAEGIGPEERRQTLLQKMSSF
In the case of B3, under setting [1], the C-term flag came out at 5. Moreover, the “C-term IgG” value under setting [2] is 0. Besides, the “N-term FLAG” value under setting [3] amounted to 0. Moreover, the “N-term IgG” value under setting [4] was 0.

B4: PDIA3 (protein)
chain: SDVLELTDDNFESRISDTGSAGLMLVEFFAPWCGHCKRLAPEYEAAATRLKGIVPLAKVDCTANTNTCNKYGVSGYPTLKIFRDGEEAGAYDGPRTADGIVSHLKKQAGPASVPLRTEEEFKKFISDKDASIVGFFDDSFSEAHSEFLKAASNLRDNYRFAHTNVESLVNEYDDNGEGIILFRPSHLTNKFEDKTVAYTEQKMTSGKIKKFIQENIFGICPHMTEDNKDLIQGKDLLIAYYDVDYEKNAKGSNYWRNRVMMVAKKFLDAGHKLNFAVASRKTFSHELSDFGLESTAGEIPVVAIRTAKGEKFVMQEEFSRDGKALERFLQDYFDGNLKRYLKSEPIPESNDGPVKVVVAENFDEIVNNENKDVLIEFYAPWCGHCKNLEPKYKELGEKLSKDPNIVIAKMDATANDVPSPYEVRGFPTIYFSPANKKLNPKKYEGGRELSDFISYLQREATNPPVIQEEKPKKKKKAQEDL
For B4, the C-term flag (Co-IP with FLAG antibody, C-terminally FLAG-tagged B3GNT2, mass spectrometry count, unit not given) is given as 24. Further, the “N-term FLAG” value (Co-IP with FLAG antibody, N-terminally FLAG-tagged B3GNT2, mass spectrometry count, unit not given) was 14. The “C-term IgG” value (Co-IP with IgG control antibody, C-terminally FLAG-tagged B3GNT2, mass spectrometry count, unit not given) is reported as 0. Besides, the “N-term IgG” value (Co-IP with IgG control antibody, N-terminally FLAG-tagged B3GNT2, mass spectrometry count, unit not given) is recorded as 0.

B5: EMILIN1 (protein)
chain: ASYPPRGFSLYTGSSGALSPGGPQAQIAPRPASRHRNWCAYVVTRTVSCVLEDGVETYVKYQPCAWGQPQCPQSIMYRRFLRPRYRVAYKTVTDMEWRCCQGYGGDDCAESPAPALGPASSTPRPLARPARPNLSGSSAGSPLSGLGGEGPGESEKVQQLEEQVQSLTKELQGLRGVLQGLSGRLAEDVQRAVETAFNGRQQPADAAARPGVHETLNEIQHQLQLLDTRVSTHDQELGHLNNHHGGSSSSGGSRAPAPASAPPGPSEELLRQLEQRLQESCSVCLAGLDGFRRQQQEDRERLRAMEKLLASVEERQRHLAGLAVGRRPPQECCSPELGRRLAELERRLDVVAGSVTVLSGRRGTELGGAAGQGGHPPGYTSLASRLSRLEDRFNSTLGPSEEQEESWPGAPGGLSHWLPAARGRLEQLGGLLANVSGELGGRLDLLEEQVAGAMQACGQLCSGAPGEQDSQVSEILSALERRVLDSEGQLRLVGSGLHTVEAAGEARQATLEGLQEVVGRLQDRVDAQDETAAEFTLRLNLTAARLGQLEGLLQAHGDEGCGACGGVQEELGRLRDGVERCSCPLLPPRGPGAGPGVGGPSRGPLDGFSVFGGSSGSALQALQGELSEVILSFSSLNDSLNELQTTVEGQGADLADLGATKDRIISEINRLQQEATEHATESEERFRGLEEGQAQAGQCPSLEGRLGRLEGVCERLDTVAGGLQGLREGLSRHVAGLWAGLRETNTTSQMQAALLEKLVGGQAGLGRRLGALNSSLQLLEDRLHQLSLKDLTGPAGEAGPPGPPGLQGPPGPAGPPGSPGKDGQEGPIGPPGPQGEQGVEGAPAAPVPQVAFSAALSLPRSEPGTVPFDRVLLNDGGYYDPETGVFTAPLAGRYLLSAVLTGHRHEKVEAVLSRSNQGVARVDSGGYEPEGLENKPVAESQPSPGTLGVFSLILPLQAGDTVCVDLVMGQLAHSEEPLTIFSGALLYGDPELEHA
With B5, the C-term flag under setting [1] is reported as 3. In addition, under setting [2], the “C-term IgG” value came out at 0. The “N-term FLAG” value under setting [3] is recorded as 2. Besides, the “N-term IgG” value under setting [4] came to 0.

The values are drawn from patent publication US20240261333A1, “NOVEL TARGETS FOR ENHANCING ANTI-TUMOR IMMUNITY” (THE BROAD INSTITUTE, INC., priority 2021, published 2024).
